# Data reported in patent publication US20200157194A1 (Regeneron, published 2020).
# T1: recombinant human GREM1 (hGREM1-His; C-terminal 10His tagged, R&D, #5190-GR) (human, UniProt O60565 25-184, limits assumed)
# T1 sequence: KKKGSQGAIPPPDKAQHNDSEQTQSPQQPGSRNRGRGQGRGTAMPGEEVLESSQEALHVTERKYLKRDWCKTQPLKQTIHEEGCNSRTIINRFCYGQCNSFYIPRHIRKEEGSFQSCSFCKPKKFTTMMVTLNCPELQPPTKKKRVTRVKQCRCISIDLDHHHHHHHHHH
# T2: human GREM1 (hGREM1-His; SEQ ID NO: 595) (human, UniProt O60565 25-184)
# T2 construct: also called biotin-hGREM1-His; recombinant human GREM1 protein
# T2 sequence: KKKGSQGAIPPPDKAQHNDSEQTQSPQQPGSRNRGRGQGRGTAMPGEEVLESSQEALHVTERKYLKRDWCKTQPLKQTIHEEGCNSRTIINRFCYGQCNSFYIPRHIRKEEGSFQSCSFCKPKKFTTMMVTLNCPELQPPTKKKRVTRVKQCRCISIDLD
# Assays:
# [1] = target: T1, recombinant human GREM1 (hGREM1-His; …); assay: cell-based or functional assay
# [2] = target: T1, recombinant human GREM1 (hGREM1-His; …); assay: cell-based or functional assay; remark: listed apart in the source
# [3] = target: T1, recombinant human GREM1 (hGREM1-His; …); assay: BLI Octet, mAb captured, 100 nM GREM1;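 note: octet Red96 biolayer interferometry at 25 °C in pH 7.4 HEPES saline buffer, antibodies held on anti-human IgG Fc capture biosensors, then exposed to GREM1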
# Procedure: (§1) Binding measurements were conducted using an Octet Red96 label-free biomolecular interaction instrument (ForteBio). All experiments were performed at 25° C. using plate agitation at 1000 rpm. Solutions were made in an aqueous buffer containing 10 mM HEPES, 150 mM NaCl, 3 mM EDTA 0.05% P20, 0.1 mg/mL BSA and adjusted to pH of 7.4 (HBST buffer).
# (§2) Anti-Human IgG Fc Capture biosensors (ForteBio) were separately loaded with 50 μg/mL solutions of 24 different anti-GREM1 antibodies for 60 seconds. Following a 30 second wash, duplicate biosensors for each antibody were submerged into wells containing either 100 nM GREM1 solutions or 100 nM GREM1 solutions containing 5 μM of heparin, measuring association for 300 seconds.
# [4] = target: T1, recombinant human GREM1 (hGREM1-His; …); assay: BLI Octet, mAb captured, 100 nM GREM1 + 5 uM heparin;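 note: octet Red96 biolayer interferometry at 25 °C, antibodies captured on anti-human IgG Fc biosensors, pH 7.4 HEPES buffer with 0.1 mg/mL BSA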
# [5] = target: T2, human GREM1 (hGREM1-His; SEQ ID NO: 595); assay: SPR, Biacore T200, 25 C, mAb captured, hGREM1-His injected;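 note: Heparin-supplemented HBS-EP+ used as running buffer, association and dissociation phases followed, Kd computed as koff divided by kon and half-life derived from koff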
# Procedure: (§3) Kinetic experiments were carried out using HBS-EP+heparin [10 mM HEPES, 150 mM NaCl, 3 mM EDTA, 0.05% (v/v) surfactant P20, 10 μg/ml heparin sodium salt, pH 7.4] as both the running buffer and the sample buffer. […] Antigen-antibody association was monitored for 150 seconds while dissociation in buffer was monitored for 420 seconds. Kinetic analysis was performed using Scrubber software version 2.0a or Biacore T200 evaluation software v1.0 to determine kₐ and kd values. KD and t_{1/2} were then calculated from the experimentally determined kₐ and kd values as KD=kd/kₐ and t_{1/2}=In(2)/kd.
# [6] = target: T2, human GREM1 (hGREM1-His; SEQ ID NO: 595); assay: SPR, Biacore T200, 37 C, mAb captured, hGREM1-His injected;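 note: HBS-EP running buffer containing heparin, association and dissociation phases tracked, KD computed as koff over kon and half-life derived from koff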
# Procedure: as §3
# [7] = target: T1, recombinant human GREM1 (hGREM1-His; …); assay: BLI Octet, mAb captured, 100 nM GREM1 without vs with 5 uM heparin;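 note: octet Red96 biolayer interferometry at 25 °C, antibodies captured on anti-human IgG Fc biosensors, association of GREM1 measured with versus without heparin in HEPES-buffered saline, pH 7.4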
# Procedure: as §1, §2
# [8] = target: T2, human GREM1 (hGREM1-His; SEQ ID NO: 595); assay: competition ELISA, biotin-hGREM1-His (100 pM) binding to coated hBMP4
# Procedure: Data were analyzed using a sigmoidal dose-response model within Prism™ software. […] The absorbance values of the wells containing the highest concentration for each antibody were used to determine the percent maximum blocking.
Binder,"IC50 [M], inhibition of hGREM1-His, W-20-17/BRE-luc luciferase (100 pM hBMP4, 10 nM hGREM1-His) [1] [M]","hGREM1-His Inhibition IC50, M; W-20-17 cell differentiation assay (alkaline phosphatase) [2] [nM]",Binding Signal with 30 sec Association [3] [nm],Binding Signal with 300 sec Association [3] [nm],Binding Signal with 30 sec Association [4] [nm],Binding Signal with 300 sec Association [4] [nm],Kd [5] [nM],koff [5] [s⁻¹],kon [5] [M⁻¹ s⁻¹],t1/2 [5] [min],Kd [6] [nM],koff [6] [s⁻¹],kon [6] [M⁻¹ s⁻¹],t1/2 [6] [min],Reduction in Signal from Heparin at 30 sec [7] [nm],Reduction in Signal from Heparin at 300 sec [7] [nm],% blocked at maximum Ab tested (20 nM) [8] [%],IC50 [8] [nM]
"H4H6238P (antibody, human IgG4, V domains shown, H4H prefix = human IgG4 Fc) VH: QVQLVESGGGLVKPGGSLRLSCAASGFTFSDYYMSWIRQAPGKGLEWVSYIGTRGSSIYYADSLKGRFTISRDNAKNSLYLQMNSLRAEDTAVYYCARDPTGTSYFDYWGQGTLVTVSS VL: not shown",1.1e-09,22,0.13,0.41,0.02,0.33,9.32,0.000225,24100,51,16.4,0.000931,56900,12,0.11,0.08,64,0.97
"H4H6243P (antibody, human IgG4, V domains shown, H4H prefix = human IgG4 Fc) VH: QVQLVQSGAEVKKPGASVKVSCKVSGYTLTELSMHWVRQAPGKGLEWMGGFDPEDGETIYAQKFQDRVTMTEDTSTDTAYMELSSLRSEDTAVYYCVTDDYEILPEYPYNMDVWGQGTTVTVSS VL: DIQMTQSPSSLSASVGDRVTITCRASQSISTYLNWYQQKPGKAPKLLIYAASSLQSGVPSRFSGSGSGTDFTLTIRSLQPEDFATYYCQQSHITPFTFGPGTKVDIK",5.4e-10,5.9,0.3,0.47,0,0.21,11.3,0.000178,15800,65,68.7,0.000484,7050,24,0.3,0.26,92,< 0.025
"H4H6250P (antibody, human IgG4, V domains shown, H4H prefix = human IgG4 Fc) VH: QVQLVESGGGVVQPGRSLRLSCAASGFTFSNYGMHWVRQAPGKGLEWVAVIWYDGSNKYYADSVKGRFTISRDNSRKTLYLQMNSLRAEDTAIYYCTRDDYGDYDYPFDYWGQGTLVTVSS VL: DIQMTQSPSSLSASVGDRVTITCRASQGIRNDLGWYQQKPGKAPKRLIYAASSLQSGVPSRFSGTGSGTEFTLTISSLQPEDFATYYCLQHNSYPPFTFGPGTKVDIK",4.4e-10,12,0.2,0.37,0.06,0.32,3.3,0.000297,90100,39,5.93,0.000882,149000,13,0.14,0.05,42,0.11

# Continued by falling Kd [5], values first:
"IC50 [M], inhibition of hGREM1-His, W-20-17/BRE-luc luciferase (100 pM hBMP4, 10 nM hGREM1-His) [1] [M]","hGREM1-His Inhibition IC50, M; W-20-17 cell differentiation assay (alkaline phosphatase) [2] [nM]",Binding Signal with 30 sec Association [3] [nm],Binding Signal with 300 sec Association [3] [nm],Binding Signal with 30 sec Association [4] [nm],Binding Signal with 300 sec Association [4] [nm],Kd [5] [nM],koff [5] [s⁻¹],kon [5] [M⁻¹ s⁻¹],t1/2 [5] [min],Kd [6] [nM],koff [6] [s⁻¹],kon [6] [M⁻¹ s⁻¹],t1/2 [6] [min],Reduction in Signal from Heparin at 30 sec [7] [nm],Reduction in Signal from Heparin at 300 sec [7] [nm],% blocked at maximum Ab tested (20 nM) [8] [%],IC50 [8] [nM],Binder
8.1e-10,7.8,0.23,0.53,0.05,0.37,4,0.000319,79700,36,9.75,0.00118,121000,10,0.18,0.16,60,0.65,"H4H6240P (antibody, human IgG4, V domains shown, H4H prefix = human IgG4 Fc) VH: QVQLVESGGGVVQPGRSLRLSCAASGFTFSSYGMHWVRQAPGKGLEWVAVIWYDGSNKYYADSVKGRFIISRDNSKNMMYLQMNSLRAEDTAVYYCAREDNWNYAFDYWGQGTLVTVSS VL: EIVMTQSPATLSVSPGERATLSCRASQSISSNLAWYQQKPGQAPRLLIYDSSTRATGIPARFSGSGSGTQFTLTISSLQSEDFALYYCQQYSNWPPFTFGPGTKVDIK"
5.6e-10,6.2,0.19,0.38,0.06,0.34,2.59,0.000192,73900,60,3.5,0.000444,127000,26,0.13,0.04,62,1.5,"H4H6246P (antibody, human IgG4, V domains shown, H4H prefix = human IgG4 Fc) VH: QVQLVESGGGVVQPGRSLRLSCAASGFTFSSYGMHWVRQAPGKGLEWVAIIWYDGSNRYYADSVKGRFTISRDNSRNTLYLQMNSLRAEDTAVYYCARDEYGDYDYPFDYWGQGTLVTVSS VL: DIQMTQSPSSLSASVGDRVTITCRASQGIRNDLGWFQQKPGKAPKRLIYAASSLQSGVPSRFSGSGSGTEFTLTISSLQPEDFATYYCLQHNTYPPFTFGPGTKVDIK"
4.1e-10,23,0.19,0.47,0.08,0.41,1.88,0.000172,91300,67,3.26,0.000512,157000,23,0.11,0.06,66,0.69,"H4H6233P (antibody, human IgG4, V domains shown, H4H prefix = human IgG4 Fc) VH: QVQLVESGGGVVQPGRSLRLSCAASGFTFSSYGMHWVRQAPGKGLEWVAVIWYDGSNYYYAASVKGRFTISRDNSENTLYLQMNRLRAEDTAVYYCAREGTGSTEDYFDYWGQGTLVTVSS VL: EIVLTQSPATLSLSPGERATLSCRASQSVSSFLAWYQQKPGQAPRLLIYDASNRATGIPVRFSGSGSGTDFTLTISSLEPEDFAVYYCQQRSNWPPYTFGQGTKLEIK"
5.3e-10,6.1,0.23,0.41,0.02,0.22,1.51,0.000117,77900,98,2.53,0.000262,103000,44,0.21,0.19,96,0.036,"H4H6245P (antibody, human IgG4, V domains shown, H4H prefix = human IgG4 Fc) VH: EVQLVESGGGLVQPGGSLRLSCAASGFTFNSFWMSWVRQAPGKGLEWVANIKQDGSEKYYVDSVKGRFTISRDNAKNSVYLQMNSLRAEDTAVYYCARDLVTSFDYWGQGTLVTVSS VL: DIQMTQSPSSLSASVGDRVTITCQASQDINNYLNWYQQKPGKAPKLLIYDASYLETGVPSGFSGSGSGTDFTFTISSLQPEDIATYYCQQYDSLPYTFGQGTKLEIK"
7.8e-10,4.5,0.33,0.48,0.06,0.46,1.25,9.6e-05,76800,120,1.73,0.000195,113000,59,0.27,0.02,93,< 0.025,"H4H6232P (antibody, human IgG4, V domains shown, H4H prefix = human IgG4 Fc) VH: QVQLVQSGAEVKKPGASVKVSCKVSGYTLTELSMHWVRQAPGKGLEWMGGFDPEDGETIYAQKFQGRLTMTEDTSTDTAYMELSSLRSEDTAVYYCATDDYDILTSYPYNMDVWGQGTTVTVSS VL: DIQMTQSPSSLSASVGDRVTITCRASQSINNYLNWYQQKPGKAPKLLIYAASSLQSGVPSRFSGSGSGTDFTLTISSLQPEDFGTYYCQQSDSTPFTFGPGTKVDIK"
